From publication PMC9595545, “Nonamer dependent RAG cleavage at CpGs can explain mechanism of chromosomal translocations associated to lymphoid cancers”

Experiments:
[1] = molecular target: T1, RAG1 nonamer binding domain (NBD) (UniProt P15919 389-456); test: EMSA; RAG EMSA: 22.5 mM MOPS-KOH pH 7.0, 20% DMSO, 2.2 mM DTT, 50 mM K-glutamate, 2% glycerol, 100 ng/ml BSA, 2 h, 25 C; NBD EMSA as in earlier work; BLI: SAX sensors, NBD 0.36-2.22 nM, 1:1 fit, buffer not stated; conditions: protein: recombinant, tags: His (pET28a, Ni-NTA), chain copies: 2, T/G mismatch
T1 sequence: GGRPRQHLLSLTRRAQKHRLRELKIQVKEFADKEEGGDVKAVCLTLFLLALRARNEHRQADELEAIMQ

[2] = molecular target: T1, RAG1 nonamer binding domain (NBD); test: BLI; RAG EMSA: 22.5 mM MOPS-KOH pH 7.0, 20% DMSO, 2.2 mM DTT, 50 mM K-glutamate, 2% glycerol, 100 ng/ml BSA, 2 h, 25 C; NBD EMSA as in earlier work; BLI: SAX sensors, NBD 0.36-2.22 nM, 1:1 fit, buffer not stated; conditions: protein: recombinant, tags: His (pET28a, Ni-NTA), chain copies: 2, biotin (BLI)

B1: MTCIV (NM92/NM93) (dsDNA)
DNA 1: GGAGGGGCTTCCCCTTGTTCACGCCAATGGCAGCGCCAGGTGTTCAGGGAGCTCTTGCGTTCAAACCACGA
DNA 2: TCGTGGTTTGAACGCAAGAGCTCCCTGAACACCTGGCGCTGCCATTGGCGTGAACGAGGGGAAGCCCCTCC
B1: binds ([1]; label: 5'-32P on NM92).

B2: MTCIII (NM90/NM91) (dsDNA)
DNA 1: TCACGCCAATGGCAGTGCCAGGTGTTCAGGGAGCTCTTGCGTTCAAACCACGA
DNA 2: TCGTGGTTTGAACGCAAGAGCTCCCTGAACACCTGGCGCTGCCATTGGCGTGA
B2: binds ([1]; label: 5'-32P on NM90).

B3: 12RSS (AKN1/AKN2) (dsDNA)
DNA 1: GATCAGCTGATAGCTACCACAGTGCTACAGACTGGAACAAAAACCCTGCT
DNA 2: TAGCAGGGTTTTTGTTCCAGTCTGTAGCACTGTGGTAGCTATCAGCTGAT
B3 was tested, and the Kd ([2]; label: 5'-32P on AKN1 (EMSA)) was 0.7 nM.

B4: FI (HK5/HK6) (dsDNA)
DNA 1: GGCCCTGCTTGACTGTGTCACAACCCCATCCAGTGGCCCTGAACTTGG
DNA 2: CCAAGTTCAGGGCCACTGGATGGGGTTGTGACGCAGTCAAGCAGGGCC
For B4, the Kd ([2]; label: 5'-32P on HK5 (EMSA), T/G mismatch) was 0.69 nM.

B5: MTCI (NM50/NM51) (dsDNA)
DNA 1: TTCAGGGAGCTCTTGTGTTCAAACCACGAAGAAGACGCAGTTTAATCTCA
DNA 2: TGAGATTAAACTGCGTCTTCTTCGTGGTTTGAACGCAAGAGCTCCCTGAA
B5: binds ([1]; label: 5'-32P on NM50).

B6: MTCII (NM88/NM89) (dsDNA)
DNA 1: TGCCATTGGCGTGAATGAGGGGAAGCCCCTCCTGACAGCTGGATGGTAGGACAAAGCCCTCTA
DNA 2: TAGAGGGCTTTGTCCTACCATCCAGCTGTCAGGAGGGGCTTCCCCTCGTTCACGCCAATGGCA
B6: binds ([1]; label: 5'-32P on NM88).

B7: KI (AP66/AP67) (dsDNA)
DNA 1: GAAAAAAGTGGCTCCCTGCCCAAGTATCCCTGTAAAACAAAAACCAAAAG
DNA 2: CTTTTGGTTTTTGTTTTACAGGGATACTTGGGCGGGGAGCCACTTTTTTC
For B7, the Kd ([2]; label: 5'-32P on AP66 (EMSA), T/G mismatch) was 0.36 nM.
